Results as given in the Human Domainome abundance scans (Beltran et al. 2025).
± gives the uncertainty stated by the source.

B1: CD2-associated protein, residues 271 to 331; numbered along this chain, Q9Y5K6 (parent)
chain: KEYCRTLFAYEGTNEDELTFKEGEIIHLISKETGEAGWWRGELNGKEGVFPDNFAVQINEL

Variants of: B1
Test: abundance fitness (aPCA) (normalised: wild type 0, dead -1); higher = more abundant; growth selection in yeast, the domain comes from the species named
Conditions: Homo sapiens
KEYCRTLFAYEGTNEDELTFKEGEIIHLISKETGEAGWWRGELNGKEGVFPDNFAVQINEW gave an abundance fitness of -0.116 ± 0.089. Work on KEYCRTLFAYEGTNEDELTFKEGEIIHLISKETGEAGWWRGELNGKEGVFPDNFAVQINEY yielded an abundance fitness of 0.064 ± 0.21. KEYCRTLFAYEGTNEDELTFKEGEIIHLISKETGEAGWWRGELNGKEGVFPDNFAVQINES showed an abundance fitness of 0.152 ± 0.077. Work on KEYCRTLFAYEGTNEDELTFKEGEIIHLISKETGEAGWWRGELNGKEGVFPDNFAVQINEV yielded an abundance fitness of 0.02 ± 0.13. In the case of KEYCRTLFAYEGTNEDELTFKEGEIIHLISKETGEAGWWRGELNGKEGVFPDNFAVQINET, the abundance fitness is reported as 0.105 ± 0.12.
